FireProtDB (doi:10.1038/342296a0)

B1: Ribonuclease, P00648 (parent)
chain: MMKMEGIALKKRLSWISVCLLVLVSAAGMLFSTAAKTETSSHKAHTEAQVINTFDGVADYLQTYHKLPDNYITKSEAQALGWVASKGNLADVAPGKSIGGDIFSNREGKLPGKSGRTWREADINYTSGFRNSDRILYSSDWLIYKTTDHYQTFTKIR

Variants of: B1
Settings: Bacillus amyloliquefaciens; pH 6.3; 25 °C; Urea; Fluorescence; MES 19.3 mM; reversible: yes; structure 1BNI; whole UniProt chain shown

Compared with MMKMEGIALKKRLSWISVCLLVLVSAAGMLFSTAAKTETSSHKAHTEAQVINSFDGVADYLQTYHKLPDNYITKSEAQALGWVASKGNLADVAPGKSIGGDIFSNREGKLPGKSGRTWREADINYTSGFRNSDRILYSSDWLIYKTTDHYQTFTKIR [T53S], MMKMEGIALKKRLSWISVCLLVLVSAAGMLFSTAAKTETSSHKAHTEAQVINAFDGVADYLQTYHKLPDNYITKSEAQALGWVASKGNLADVAPGKSIGGDIFSNREGKLPGKSGRTWREADINYTSGFRNSDRILYSSDWLIYKTTDHYQTFTKIR [T53A] is higher in “ddG of mutation (higher = less stable)” value: 0.22 kcal/mol for the first, 2.53 kcal/mol for the second.

Going from MMKMEGIALKKRLSWISVCLLVLVSAAGMLFSTAAKTETSSHKAHTEAQVINGFDGVADYLQTYHKLPDNYITKSEAQALGWVASKGNLADVAPGKSIGGDIFSNREGKLPGKSGRTWREADINYTSGFRNSDRILYSSDWLIYKTTDHYQTFTKIR [T53G] to MMKMEGIALKKRLSWISVCLLVLVSAAGMLFSTAAKTETSSHKAHTEAQVINDFDGVADYLQTYHKLPDNYITKSEAQALGWVASKGNLADVAPGKSIGGDIFSNREGKLPGKSGRTWREADINYTSGFRNSDRILYSSDWLIYKTTDHYQTFTKIR [T53D], the “ddG of mutation (higher = less stable)” value falls from 1.34 kcal/mol to -0.11 kcal/mol.

First: MMKMEGIALKKRLSWISVCLLVLVSAAGMLFSTAAKTETSSHKAHTEAQVINEFDGVADYLQTYHKLPDNYITKSEAQALGWVASKGNLADVAPGKSIGGDIFSNREGKLPGKSGRTWREADINYTSGFRNSDRILYSSDWLIYKTTDHYQTFTKIR [T53E]
Second: MMKMEGIALKKRLSWISVCLLVLVSAAGMLFSTAAKTETSSHKAHTEAQVINQFDGVADYLQTYHKLPDNYITKSEAQALGWVASKGNLADVAPGKSIGGDIFSNREGKLPGKSGRTWREADINYTSGFRNSDRILYSSDWLIYKTTDHYQTFTKIR [T53Q]
The “ddG of mutation (higher = less stable)” value of the first is lower: 0.27 kcal/mol for the first, 1.87 kcal/mol for the second.

Going from MMKMEGIALKKRLSWISVCLLVLVSAAGMLFSTAAKTETSSHKAHTEAQVINNFDGVADYLQTYHKLPDNYITKSEAQALGWVASKGNLADVAPGKSIGGDIFSNREGKLPGKSGRTWREADINYTSGFRNSDRILYSSDWLIYKTTDHYQTFTKIR [T53N] to MMKMEGIALKKRLSWISVCLLVLVSAAGMLFSTAAKTETSSHKAHTEAQVINTFDGVADYLQTYHKLPDNYIGKSEAQALGWVASKGNLADVAPGKSIGGDIFSNREGKLPGKSGRTWREADINYTSGFRNSDRILYSSDWLIYKTTDHYQTFTKIR [T73G], the “ddG of mutation (higher = less stable)” value rises from 1.27 kcal/mol to 1.58 kcal/mol.

Compared with MMKMEGIALKKRLSWISVCLLVLVSAAGMLFSTAAKTETSSHKAHTEAQVINTFDGVADYLQTYHKLPDNYIAKSEAQALGWVASKGNLADVAPGKSIGGDIFSNREGKLPGKSGRTWREADINYTSGFRNSDRILYSSDWLIYKTTDHYQTFTKIR [T73A], MMKMEGIALKKRLSWISVCLLVLVSAAGMLFSTAAKTETSSHKAHTEAQVINTFDGVADYLQTYHKLPDNYIEKSEAQALGWVASKGNLADVAPGKSIGGDIFSNREGKLPGKSGRTWREADINYTSGFRNSDRILYSSDWLIYKTTDHYQTFTKIR [T73E] is lower in “ddG of mutation (higher = less stable)” value: 2.11 kcal/mol for the first, 0.05 kcal/mol for the second.

First: MMKMEGIALKKRLSWISVCLLVLVSAAGMLFSTAAKTETSSHKAHTEAQVINTFDGVADYLQTYHKLPDNYIQKSEAQALGWVASKGNLADVAPGKSIGGDIFSNREGKLPGKSGRTWREADINYTSGFRNSDRILYSSDWLIYKTTDHYQTFTKIR [T73Q]
Second: MMKMEGIALKKRLSWISVCLLVLVSAAGMLFSTAAKTETSSHKAHTEAQVINTFDGVADYLQTYHKLPDNYIVKSEAQALGWVASKGNLADVAPGKSIGGDIFSNREGKLPGKSGRTWREADINYTSGFRNSDRILYSSDWLIYKTTDHYQTFTKIR [T73V]
The “ddG of mutation (higher = less stable)” value of the first is lower: 1.72 kcal/mol for the first, 2.31 kcal/mol for the second.

For MMKMEGIALKKRLSWISVCLLVLVSAAGMLFSTAAKTETSSHKAHTEAQVINTFDGVADYLQTYHKLPDNYINKSEAQALGWVASKGNLADVAPGKSIGGDIFSNREGKLPGKSGRTWREADINYTSGFRNSDRILYSSDWLIYKTTDHYQTFTKIR [T73N], the “ddG of mutation (higher = less stable)” value was 1.29 kcal/mol.
